Values belong to the molecule of their own block, whether it stands above or below them. Non-standard residues stand in square brackets, D forms with d. No end group written: not given here. pT = C[C@@H](OP(=O)(O)O)[C@H](N)C(=O)O; MBP = maltose-binding protein
What was measured:
[1] = biological target: Biotin-conjugated ^MBPPBD (immobilised ligand of BLI) (human) (UniProt P53350); assay: BLI; biotin-conjugated ^MBPPBD immobilised on streptavidin sensors, CENP-U variants as analyte; 25 °C, 20 mM HEPES pH 7.5, 2.5% glycerol, 300 mM NaCl, 0.1 mM TCEP, 0.3 g/L BSA, 0.05% Tween20; KD from koff/kon of the global fit
Chain of Biotin-conjugated ^MBPPBD (immobilised ligand of BLI) (human) (P53350 345-603): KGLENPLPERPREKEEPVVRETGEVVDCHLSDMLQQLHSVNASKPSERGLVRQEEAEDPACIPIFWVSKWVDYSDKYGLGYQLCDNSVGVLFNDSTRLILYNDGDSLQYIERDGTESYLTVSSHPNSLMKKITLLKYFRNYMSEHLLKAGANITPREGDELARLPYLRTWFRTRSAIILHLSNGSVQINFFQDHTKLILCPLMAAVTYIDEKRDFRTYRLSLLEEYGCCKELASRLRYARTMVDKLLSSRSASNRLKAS

[2] = biological target: singly phosphorylated pT98 peptide of CENP-U (ITC) (human); assay: ITC; phosphorylated CENP-U construct in the cell, ^MBPPBD in the syringe; 25 °C, 20 mM Hepes pH 7.5, 300 mM NaCl, 1 mM TCEP, 1% glycerol; one set of sites model
[3] = biological target: T1, ^MBPPBD (6xHis-MBP-TEV-PLK1^345-603) (human, UniProt P53350 345-603); assay: BLI; biotin-conjugated phosphorylated ^MBPCENP-U^58-114 immobilised on streptavidin sensors, ^MBPPBD or ^6HisPLK1^FL as analyte; 25 °C, 20 mM HEPES pH 7.5, 2.5% glycerol, 300 mM NaCl, 0.1 mM TCEP, 0.3 g/L BSA, 0.05% Tween20; one site for pT78, two sites (KD1, KD2) for pT98 and pT78/pT98; conditions: both partners purified
T1 construct: PLK1, human, residues 345-603 (Polo-box domain construct); The plasmids paragraph speaks of expression in insect cells, the purification paragraph of E. coli BL21 (DE3); TEV site between MBP and PLK1; source: E. coli BL21 (DE3), purified (HisTALON, SEC); not shown: MBP, N-terminal, kept
T1 sequence (P53350 345-603): as above

[4] = biological target: T2, ^6HisPLK1^FL (6xHis-TEV-PLK1, full length) (human, UniProt P53350 1-603); assay: as above; conditions: both partners purified
T2 construct: PLK1, human, 603 residues, full length; also called full length PLK1; source: insect cells (plasmid from a previous study), purified (HisTALON, SEC); not shown: 6xHis, N-terminal, kept
T2 sequence (P53350 whole entry): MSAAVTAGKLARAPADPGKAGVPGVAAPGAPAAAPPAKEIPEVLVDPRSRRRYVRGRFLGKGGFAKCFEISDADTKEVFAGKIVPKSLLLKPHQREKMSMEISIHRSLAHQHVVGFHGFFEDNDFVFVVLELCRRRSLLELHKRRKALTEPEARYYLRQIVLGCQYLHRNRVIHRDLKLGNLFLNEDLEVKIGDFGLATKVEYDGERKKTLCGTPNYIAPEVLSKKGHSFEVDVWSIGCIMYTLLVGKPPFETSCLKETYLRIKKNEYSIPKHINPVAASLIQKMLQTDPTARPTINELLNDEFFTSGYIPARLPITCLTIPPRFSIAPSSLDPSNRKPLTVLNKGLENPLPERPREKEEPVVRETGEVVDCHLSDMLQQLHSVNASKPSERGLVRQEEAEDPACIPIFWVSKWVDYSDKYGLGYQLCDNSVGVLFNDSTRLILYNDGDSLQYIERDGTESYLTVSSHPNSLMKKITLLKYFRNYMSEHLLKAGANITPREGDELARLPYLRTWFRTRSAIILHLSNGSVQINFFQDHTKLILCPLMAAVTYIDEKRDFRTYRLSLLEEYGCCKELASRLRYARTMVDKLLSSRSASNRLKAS

[5] = biological target: T3, Biotin-conjugated ^MBPPBD (immobilised ligand of BLI) (human, UniProt P53350 345-603, biotin (Gly-Gly-Gly-Gly-Biotin conjugated to the C-terminal PLPETG peptide by sortase A)); assay: BLI; biotin-conjugated ^MBPPBD immobilised on streptavidin sensors, CENP-U variants as analyte; 25 °C, 20 mM HEPES pH 7.5, 2.5% glycerol, 300 mM NaCl, 0.1 mM TCEP, 0.3 g/L BSA, 0.05% Tween20; KD from koff/kon of the global fit; conditions: both partners purified
T3 construct: PLK1, human, residues 345-603 (Polo-box domain construct); As m1 with a C-terminal PLPETG peptide used for biotin labelling; held on streptavidin sensors; also called immobilized PBD; source: E. coli BL21 (DE3), purified (HisTALON, SEC), biotin-labelled with sortase A; not shown: MBP, N-terminal, kept; PLPETG peptide conjugated with Gly-Gly-Gly-Gly-Biotin, C-terminal, kept
T3 sequence (P53350 345-603): as the sequence (P53350 345-603) above

[6] = biological target: T1, ^MBPPBD (6xHis-MBP-TEV-PLK1^345-603); assay: ITC; phosphorylated CENP-U construct in the cell, ^MBPPBD in the syringe; 25 °C, 20 mM Hepes pH 7.5, 300 mM NaCl, 1 mM TCEP, 1% glycerol; one set of sites model; conditions: both partners purified
[7] = biological target: T1, ^MBPPBD (6xHis-MBP-TEV-PLK1^345-603); assay: SEC; analytical SEC, Superdex 200 5/150, 20 mM Bis-tris/HCl pH 6.5, 250 mM NaCl, 5% glycerol, 1 mM TCEP, 4 °C; PBD added 2:1 to the CENP-U variant (10 µM ^MBPPBD and 5 µM ^MBPCENP-U^58-114 in Fig. 1C); conditions: both partners purified

- Kd [1]: 0.4 µM
- koff [1]: 0.0028 s⁻¹
- kon [1]: 7100 M⁻¹ s⁻¹
Molecule: ^MBPCENP-U^84-114/pT98 (from UniProt Q71F23 84-114) (domain or fragment)

- Kd [2]: 0.38 µM
Molecule: ^MBPPBD (6xHis-MBP-TEV-PLK1^345-603) (from UniProt P53350 345-603) (domain or fragment)

- Kd [3]: 0.0019 µM
- koff [3]: 0.00052 s⁻¹
- kon [3]: 280000 M⁻¹ s⁻¹
- Kd [4]: 0.022 µM
- koff [4]: 0.0033 s⁻¹
- kon [4]: 150000 M⁻¹ s⁻¹
B1: biotin-conjugated ^MBPCENP-U^58-114/pT78 (immobilised ligand of BLI) (domain or fragment, human, UniProt Q71F23 58-114, looked up)
chain: LGENEKDEETYETFDPPLHS[pT]AIYADEEEFSKHCGLSLSSTPPGKEAKRSSDTSGNE
modifications: not fully specified (N-terminus); also: N-terminal MBP fusion protein, C-terminal PLPETG tag ligated by sortase A to Gly4-biotin
notes: source: E. coli BL21 (DE3), purified; phosphorylated in vitro with PLK1; biotin-labelled with sortase A; not shown: MBP, N-terminal, kept; PLPETG peptide conjugated with Gly-Gly-Gly-Gly-Biotin, C-terminal, kept

- Kd [5]: 10 µM
- koff [5]: 0.00028 s⁻¹
- kon [5]: 28 M⁻¹ s⁻¹
B2: ^MBPCENP-U^58-83 (6xHis-MBP-TEV-CENP-U^58-83), unphosphorylated (domain or fragment, human, UniProt Q71F23 58-83, looked up)
chain: {6xHis-MBP-TEV}-LGENEKDEETYETFDPPLHSTAIYAD
notes: CENP-U (PBIP1), human, residues 58-83 (Motif 1); also called Motif 1; unphosphorylated Motif 1; source: E. coli BL21 (DE3), purified (HisTALON, Resource Q, SEC); not shown: MBP, N-terminal, kept

- Kd [5]: 0.23 µM
- koff [5]: 0.011 s⁻¹
- kon [5]: 47000 M⁻¹ s⁻¹
B3: ^MBPCENP-U^58-83/Y68A/F71A/pT78 (domain or fragment, human, UniProt Q71F23 58-83, looked up)
chain: LGENEKDEETAETADPPLHS[pT]AIYAD
modifications: also: N-terminal MBP fusion protein
notes: CENP-U (PBIP1), human, residues 58-83 (Motif 1); source: E. coli BL21 (DE3), purified; not shown: MBP, N-terminal, kept

- Kd [5]: 0.088 µM
- koff [5]: 0.0077 s⁻¹
- kon [5]: 87000 M⁻¹ s⁻¹
B4: ^MBPCENP-U^58-83/F71A/pT78 (domain or fragment, human, UniProt Q71F23 58-83, looked up)
chain: LGENEKDEETYETADPPLHS[pT]AIYAD
modifications: also: N-terminal MBP fusion protein
notes: as for B3

- Kd [5]: 0.0072 µM
- koff [5]: 0.001 s⁻¹
- kon [5]: 140000 M⁻¹ s⁻¹
B5: ^MBPCENP-U^58-114/pT78/F87A/T98V (domain or fragment, human, UniProt Q71F23 58-114, looked up)
chain: LGENEKDEETYETFDPPLHS[pT]AIYADEEEASKHCGLSLSSVPPGKEAKRSSDTSGNE
modifications: also: N-terminal MBP fusion protein
notes: source: E. coli BL21 (DE3), purified; phosphorylated in vitro with only PLK1; not shown: MBP, N-terminal, kept

- Kd [5]: 0.0025 µM
- koff [5]: 0.00034 s⁻¹
- kon [5]: 140000 M⁻¹ s⁻¹
B6: ^MBPCENP-U^58-83/pT78 (domain or fragment, human, UniProt Q71F23 58-83, looked up)
chain: LGENEKDEETYETFDPPLHS[pT]AIYAD
modifications: also: N-terminal MBP fusion protein
notes: CENP-U (PBIP1), human, residues 58-83 (Motif 1); also called PLK1-phosphorylated ^MBPCENP-U^58-83; phosphorylated Motif 1; source: E. coli BL21 (DE3), purified; not shown: MBP, N-terminal, kept

- Kd [6]: ~0.0019 µM
Molecule: LGENEKDEETYETFDPPLHS[pT]AIYAD (domain or fragment) [singly phosphorylated pT78 peptide of CENP-U (ITC)]

- binding result [7]: binds
B7: ^MBPCENP-U^84-114 F87A, phosphorylated with CDK1 (domain or fragment, human, UniProt Q71F23 84-114, looked up)
chain: EEEASKHCGLSLSS[pT]PPGKEAKRSSDTSGNE
modifications: also: N-terminal MBP fusion protein
notes: also called F87 to alanine mutant of Motif 2; source: E. coli BL21 (DE3), purified; phosphorylated in vitro with CDK1; not shown: MBP, N-terminal, kept

- binding result [7]: binds
B8: ^MBPCENP-U^58-114 (6xHis-MBP-TEV-CENP-U^58-114), unphosphorylated (domain or fragment, human, UniProt Q71F23 58-114, looked up)
chain: {6xHis-MBP-TEV}-LGENEKDEETYETFDPPLHSTAIYADEEEFSKHCGLSLSSTPPGKEAKRSSDTSGNE
notes: The plasmids paragraph speaks of expression in insect cells, the purification paragraph of E. coli; source: E. coli BL21 (DE3), purified (HisTALON, Resource Q, SEC); not shown: MBP, N-terminal, kept
